Results published in patent US6916624 (Genentech, dated 2005).
Like-named read-outs stand apart in the source and are kept apart here.

What was measured:
[1] = target: ErbB2 on human breast cancer cells (MDA-MB-175, SK-BR-3) (human) (UniProt P04626); test: cell-based or functional assay
[2] = target: ErbB receptor(s) on MCF7 cells; test: cell-based or functional assay
[3] = target: ErbB receptor(s) on MCF7 cells; test: cell-based or functional assay; remark: listed apart in the source
[4] = target: T1, ErbB3-immunoadhesin (ErbB3-IgG fusion, L636 ErbB3-(TR)-DKTH224 VH) (human, UniProt P21860 20-643; P01857 104-330 = IgG part); test: competitive displacement of ^125I-HRGβ1(177-244) (0.23 nM) from ErbB3-IgG captured on goat-anti-human antibody coated wells
T1 construct: extracellular domain;domain: hinge domain of the immunoglobulin onward; Made in HEK-293 cells, purified on Protein A; also called ErbB3 immunoadhesins
Description: (§1) ¹²⁵I-HRG Binding Assay. Binding assays were performed in Nunc breakapart strip wells. Plates were coated at 4° C. overnight with 100 μl of 5 μg/ml goat-anti-human antibody (Boehringer Mannheim) in 50 mM carbonate buffer (pH 9.6). Plates were rinsed twice with wash buffer (PBS/0.05% Tween-20™) and blocked with 100 μl 1% BSA/PBS for 30 min. Buffer was removed and each well was incubated with 15 ng IgG fusion protein in 1% BSA/PBS under vigorous shaking for 1.5 hours. Plates were rinsed three times with wash buffer and competitive binding was carried out by adding various amounts of γ-HRG and ¹²⁵I-HRGβ1 under vigorous shaking. After incubation for 1.5–2 hours, wells were rinsed three times with wash buffer, drained and individual wells were counted using a 100 Series Iso Data γ-counter.
(§2) Bio/Technology 11:187–193 (1993)). Under those conditions trxγ-HRG accumulated in inclusion bodies from which the recombinant protein was isolated. Following purification, the protein was sulfitolyzed and then refolded by the addition of cysteine. The interaction of γ-HRG with the heregulin receptors ErbB3 and ErbB4 was examined. […] Cells were treated with various amounts of γ-HRG and tyrosine kinase activity was determined using immunoblotting with anti-phosphotyrosine antibody.

[5] = target: T2, ErbB4-immunoadhesin (ErbB4-IgG fusion, G640 ErbB4-(TR)-DKTH224 VH) (human, UniProt Q15303 26-651; P01857 104-330 = IgG part); test: competitive displacement of ^125I-HRGβ1(177-244) (0.23 nM) from ErbB4-IgG captured on goat-anti-human antibody coated wells
T2 construct: extracellular domain;domain: hinge domain of the immunoglobulin onward; also called H4-IgG; ErbB4 immunoadhesins
Description: as §1, §2

T2 sequence (Q15303 other isoform, or with tags, fused parts or gaps limits assumed): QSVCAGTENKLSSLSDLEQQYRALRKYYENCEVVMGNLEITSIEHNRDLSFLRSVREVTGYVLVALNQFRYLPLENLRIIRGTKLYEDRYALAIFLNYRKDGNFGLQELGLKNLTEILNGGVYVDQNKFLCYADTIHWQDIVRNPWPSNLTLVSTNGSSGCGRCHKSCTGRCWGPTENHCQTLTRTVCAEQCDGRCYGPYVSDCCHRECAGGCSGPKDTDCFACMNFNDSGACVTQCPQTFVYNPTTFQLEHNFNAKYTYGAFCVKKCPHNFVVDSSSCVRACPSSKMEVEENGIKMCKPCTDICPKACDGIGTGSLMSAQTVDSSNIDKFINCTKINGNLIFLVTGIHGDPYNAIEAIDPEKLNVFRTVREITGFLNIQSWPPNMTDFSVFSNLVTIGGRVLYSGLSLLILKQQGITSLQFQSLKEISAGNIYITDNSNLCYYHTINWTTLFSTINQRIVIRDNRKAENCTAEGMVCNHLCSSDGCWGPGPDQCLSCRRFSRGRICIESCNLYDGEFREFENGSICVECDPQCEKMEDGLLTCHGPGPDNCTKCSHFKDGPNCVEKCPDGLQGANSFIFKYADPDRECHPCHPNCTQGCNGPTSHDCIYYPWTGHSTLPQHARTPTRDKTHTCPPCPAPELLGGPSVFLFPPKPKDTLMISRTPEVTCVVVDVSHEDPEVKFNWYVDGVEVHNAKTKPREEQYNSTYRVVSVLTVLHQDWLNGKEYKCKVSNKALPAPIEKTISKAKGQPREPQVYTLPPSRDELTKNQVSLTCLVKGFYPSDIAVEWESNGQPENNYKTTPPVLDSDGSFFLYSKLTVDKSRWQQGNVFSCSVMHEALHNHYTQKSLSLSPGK
T1 sequence (P21860 other isoform, or with tags, fused parts or gaps limits assumed): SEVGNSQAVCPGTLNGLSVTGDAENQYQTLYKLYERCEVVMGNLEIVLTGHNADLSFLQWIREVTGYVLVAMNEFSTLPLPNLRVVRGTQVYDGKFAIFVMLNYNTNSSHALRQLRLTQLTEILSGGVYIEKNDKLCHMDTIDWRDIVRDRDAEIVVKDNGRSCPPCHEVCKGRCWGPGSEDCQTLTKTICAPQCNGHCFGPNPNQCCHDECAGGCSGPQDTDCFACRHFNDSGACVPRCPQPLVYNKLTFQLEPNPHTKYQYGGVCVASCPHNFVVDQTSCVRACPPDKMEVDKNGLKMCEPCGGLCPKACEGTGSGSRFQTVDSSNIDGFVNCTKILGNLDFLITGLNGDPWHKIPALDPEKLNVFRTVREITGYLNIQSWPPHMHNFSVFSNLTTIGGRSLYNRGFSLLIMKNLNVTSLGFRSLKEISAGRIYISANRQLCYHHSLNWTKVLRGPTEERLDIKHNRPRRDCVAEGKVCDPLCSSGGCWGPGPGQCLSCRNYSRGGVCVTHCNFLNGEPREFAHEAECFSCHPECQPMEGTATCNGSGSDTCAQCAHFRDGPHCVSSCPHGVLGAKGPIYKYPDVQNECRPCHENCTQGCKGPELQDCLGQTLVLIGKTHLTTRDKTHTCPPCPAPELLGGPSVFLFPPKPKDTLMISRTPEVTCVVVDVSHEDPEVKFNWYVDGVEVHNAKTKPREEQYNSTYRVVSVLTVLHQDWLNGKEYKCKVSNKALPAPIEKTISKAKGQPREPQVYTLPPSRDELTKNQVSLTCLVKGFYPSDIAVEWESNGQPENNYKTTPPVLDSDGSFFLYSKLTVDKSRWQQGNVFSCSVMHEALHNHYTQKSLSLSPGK

Q: How did the growth inhibition of SK-BR-3 cells (crystal violet staining) [1] turn out when anti-ErbB2 monoclonal antibody 4D5 was run?
A: 66%

Q: “EGF-like domain of HRGβ1(177-244), expressed in E. coli (from UniProt Q02297 177-244) (ligand)” was tested. Which EC50 of tyrosine phosphorylation in MCF7 cells [2] did it give?
A: 0.06 nM

B1: trxγ-HRG (amino acids 455-768), N-terminal truncated γ-HRG thioredoxin fusion protein (ligand)
chain: QVFIDHPVHLKFNVSLGKAALVGIYGRKGLPPSHTQFDFVELLDGRRLLTQEARSLEGTPRQSRGTVPPSSHETGFIQYLDSGIWHLAFYNDGKESEVVSFLTTAIALPPRLKEMKSQESAAGSKLVLRCETSSEYSSLRFKWFKNGNELNRKNKPQNIKIQKKPGKSELRINKASLADSGEYMCKVISKLGNDSASANITIVESNEIITGMPASTEGAYVSSESPIRISVSTEGANTSSSTSTSTTGTSHLVKCAEKEKTFCVNGGECFMVKDLSNPSRYLCKCPNEFTGDRCQNYVMASFYSTSTPFLSLPE
notes: The results text calls it simply γ-HRG; also called recombinant γ-HRG; bacterial expressed truncated γ-HRG; not shown: N-terminal thioredoxin encoded by the pET-32a TRX fusion vector (Novagen); vector-encoded residues of pET32a between thioredoxin and the BamHI insertion site are not described
Q: How did the EC50 of tyrosine phosphorylation in MCF7 cells [3] turn out when B1 was run?
A: 0.06 nM

Q: And the EC50 [4]?
A: 19 nM

Q: And the EC50 [5]?
A: 13.3 nM
